The target in the experiment is HPIV3 fusion (F) protein stabilized in the prefusion conformation (HPIV3 preF) (human parainfluenza virus type 3) (UniProt P06828). Briefly: cryo-EM structure.

“HPIV3 fusion (F) protein stabilized in the prefusion conformation (HPIV3 preF) (from UniProt P06828 19-481) (natural protein)” gave a stoichiometry N of 3.

Source of the values: publication PMC9923667.
